T1: MtRipACAT (catalytic domain of M. tuberculosis RipA, residues 261–472) (Mycobacterium tuberculosis, UniProt O53168 261-472)
T1 construct: also called MtRipA catalytic domain; NlpC/P60 catalytic domain; not shown: His6, N-terminal, cleaved; SUMO, N-terminal, cleaved
T1 sequence: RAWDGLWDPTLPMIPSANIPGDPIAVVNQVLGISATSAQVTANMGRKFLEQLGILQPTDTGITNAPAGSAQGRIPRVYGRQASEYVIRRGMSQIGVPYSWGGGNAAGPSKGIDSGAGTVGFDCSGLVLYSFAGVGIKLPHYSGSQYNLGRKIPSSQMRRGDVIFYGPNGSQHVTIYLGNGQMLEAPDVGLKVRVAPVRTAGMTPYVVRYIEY

B1: CgSteBΔTM (soluble SteB of Corynebacterium glutamicum) (domain or fragment)
chain: APNLPENIDPNAPTSAELVEAETLAEVNAVQADQADSIIDHIVEDVVAGTLTDRPVLVMRTADAEESDVADVSWLLQQAGAINAGSITLEENFFSQDGADQLKSIVANTLPAGAQLSETQLDPGTHAGEALGAALLLNPETGEPLASTAERGLLLNVLRDNGYISYEDGTILPGQVIVMITGDSDGSGDGAFAAETQSLFARALDAQGSGVVVAGRIHTAADTGVIGRLRANPDAAENVSTIDSVNRTWGKMATVLSVREELAGRSGAFGSAASADAASPSLDGTAAAPAQ
notes: The cloning of this construct is not described here; source: E. coli BL21 (DE3), purified ("pure protein sample")
B2: MtRipACC (coiled-coil domain of M. tuberculosis RipA, residues 40–240) (domain or fragment)
chain: DPQTDTIAALIADVAKANQRLQDLSDEVQAEQESVNKAMVDVETARDNAAAAEDDLEVSQRAVKDANAAIAAAQHRFDTFAAATYMNGPSVSYLSASSPDEIIATVTAAKTLSASSQAVMANLQRARTERVNTESAARLAKQKADKAAADAKASQDAAVAALTETRRKFDEQREEVQRLAAERDAAQARLQAARLVAWSSE
modifications: biotin (EZ-Link NHS-PEG4-Biotin, 20 molar excess) in the BLI assays only
notes: Biotinylated and immobilised on streptavidin sensors for BLI; not biotinylated in the crystal of the complex; also called RipA coiled-coil domain; CC domain of RipA; not shown: His6, N-terminal, cleaved; SUMO, N-terminal, cleaved

Experiments:
[1] = target: the molecule itself; assay: SEC; analytical SEC, Superdex-200 3.2/300, 25 mM Hepes pH 8, 150 mM NaCl; calibrated with BioRad gel filtration standard
[2] = target: T1, MtRipACAT (catalytic domain of M. …); assay: BLI; biotinylated MtRipACC immobilised on streptavidin biosensors; Octet-Red384, 25°C; 25 mM HEPES pH 7.5, 150 mM NaCl, 5% glycerol, 1 mg/mL BSA, 0.05% Tween 20; MtSteB 200–3.125 μM or MtRipACAT 80–1.25 μM; steady-state signal, one-site binding model; apparent Kd; conditions: both partners purified

Binder | stoichiometry N [1] | Kd [2] [µM]
B1 | 2 | 
B2 |  | 6.8 ± 1.4

Source: paper PMC12977500, “Mechanistic insights into SteAB regulation of cell wall hydrolase RipA in Mycobacterium tuberculosis” (mBio, 2026)
